T1: human B7.2 ectodomain fused to human Fc (human, UniProt P42081-1 26-238)
T1 construct: also called hB7.2-Fc; hB7.2-hFc; not shown: Fc (human), C-terminal, kept
T1 sequence (looked up): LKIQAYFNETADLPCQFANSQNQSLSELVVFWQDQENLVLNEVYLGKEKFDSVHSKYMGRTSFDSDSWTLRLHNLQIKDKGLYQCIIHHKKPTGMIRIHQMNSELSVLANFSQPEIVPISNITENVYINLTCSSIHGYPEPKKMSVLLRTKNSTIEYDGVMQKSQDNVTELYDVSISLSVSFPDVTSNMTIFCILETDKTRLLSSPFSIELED

B1: human B7.1 ectodomain fused to human Fc (Fc fusion, UniProt P33681-1 35-234, looked up)
chain: VIHVTKEVKEVATLSCGHNVSVEELAQTRIYWQKEKKMVLTMMSGDMNIWPEYKNRTIFDITNNLSIVILALRPSDEGTYECVVLKYEKDAFKREHLAEVTLSVKADFPTPSISDFEIPTSNIRRIICSTSGGFPEPHLSWLENGEELNAINTTVSQDPETELYAVSSKLDFNMTTNHSFMCLIKYGHLRVNQTFNWNTT
notes: also called hB7.1-Fc; hB7.1-hFc; not shown: Fc (human), C-terminal, kept
B2: VACV M2 (vaccinia virus M2), recombinant, His-tagged (natural protein)
chain: VEYKNTICPPRQDYRYWYFAAELTIGVNYDINSTIIGECHMSESYIDRNANIVLTGYGLEINMTIMDTDQRFVAAAEGVGKDNKLSVLLFTTQRLDKVHHNISVTITCMEMNCGTTKYDSDLPESIHKSSSCDITINGSCVTCVNLETDPTKINPHYLHPKDKYLYHNSEYGMRGSYGVTFIDELNQCLLDIKELSYDICYRE

Experiments:
[1] = biological target: B2; assay: far-Western, overlay or dot blot; details: both partners purified
[2] = biological target: T1, human B7.2 ectodomain fused to human Fc; assay: far-Western, overlay or dot blot; details: both partners purified
[3] = biological target: the molecule itself; assay: non-reducing against reducing SDS-PAGE

Binder	binding result [1]	binding result [2]	binding result [3]
B1	binds		
B2		binds	binds

From paper PMC10457294 (Nature Communications, 2023)
